Data from article PMC5529715.

Target: MBP-A3H hap II (APOBEC3H haplotype II, splicing variant SV182, MBP fusion) (human)
Assay: SEC-MALS

## MBP-A3H hap II (APOBEC3H haplotype II, splicing variant SV182, MBP fusion) (enzyme)
  stoichiometry N: 14 to 15 monomers
